B1: TSPAN10 (parent)
chain: EGCGPPLRRWLRANLAASGGYAIA
B2: BCL2L13 (parent)
chain: YIIQQGGWGTVFSLESEEEEYPGI
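Also: lentivirally expressed fusions sorted by FACS into six bins by GFP to DsRed ratio, PSI derived from sequencing read proportions per bin multiplied by bin number.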

Variants of B1 are the subject of one data set. Put plainly: protein stability index of a GFP-peptide fusion (GPS, HEK-293T) (PSI 1-6); higher = more stable. To be noted: c terminus: a fixed tail appended.
Consider WGCGPPLRRWLRANLAASGGYAIA [E1W], for which the protein stability index turned out to be 2.07.
The same measure, in the same setting: with PGCGPPLRRWLRANLAASGGYAIA [E1P] the figure was 1.71; with AGCGPPLRRWLRANLAASGGYAIA [E1A], 1.63.
On the same count and under the same terms, for LGCGPPLRRWLRANLAASGGYAIA [E1L] the value was 1.81; for QGCGPPLRRWLRANLAASGGYAIA [E1Q], 1.38; for TGCGPPLRRWLRANLAASGGYAIA [E1T], 1.39.
As to NGCGPPLRRWLRANLAASGGYAIA [E1N], the protein stability index was 1.96.
On to KGCGPPLRRWLRANLAASGGYAIA [E1K], for which the protein stability index was found to be 1.42.
As to VGCGPPLRRWLRANLAASGGYAIA [E1V], the protein stability index stood at 1.
MGCGPPLRRWLRANLAASGGYAIA [E1M]: the protein stability index stood at 2.45.
Take CGCGPPLRRWLRANLAASGGYAIA [E1C]: the protein stability index is 3.75.
The same measure, in the same setting: with DGCGPPLRRWLRANLAASGGYAIA [E1D] the figure was 2.06; with RGCGPPLRRWLRANLAASGGYAIA [E1R], 2.57.
On to GGCGPPLRRWLRANLAASGGYAIA [E1G], for which the protein stability index was 2.
With IGCGPPLRRWLRANLAASGGYAIA [E1I], the protein stability index was found to be 1.81.
As to YGCGPPLRRWLRANLAASGGYAIA [E1Y], the protein stability index stood at 1.97.
As for SGCGPPLRRWLRANLAASGGYAIA [E1S], the protein stability index was 2.37.
On to EGHGPPLRRWLRANLAASGGYAIA [C3H], for which the protein stability index came to 2.62.
On the same count and under the same terms, with EGEGPPLRRWLRANLAASGGYAIA [C3E] the figure was 2.82; with EGWGPPLRRWLRANLAASGGYAIA [C3W], 1.72; with EGFGPPLRRWLRANLAASGGYAIA [C3F], 1.61.
Still for that read-out and setting: for EGTGPPLRRWLRANLAASGGYAIA [C3T] the value was 1.7; for EGLGPPLRRWLRANLAASGGYAIA [C3L], 2.65.
For EGDGPPLRRWLRANLAASGGYAIA [C3D], the protein stability index came out at 2.37.
Still for that read-out and setting: with EGPGPPLRRWLRANLAASGGYAIA [C3P] the figure was 2.25.
For the variant EGMGPPLRRWLRANLAASGGYAIA [C3M], the protein stability index amounted to 1.78.
Still for that read-out and setting: for EGVGPPLRRWLRANLAASGGYAIA [C3V] the value was 1.76.
Regarding EGGGPPLRRWLRANLAASGGYAIA [C3G], the protein stability index was 2.11.
Still for that read-out and setting: for EGQGPPLRRWLRANLAASGGYAIA [C3Q] the value was 3.09; for EGIGPPLRRWLRANLAASGGYAIA [C3I], 2.83; for EGSGPPLRRWLRANLAASGGYAIA [C3S], 2.45.
On to EGRGPPLRRWLRANLAASGGYAIA [C3R], for which the protein stability index is 1.4.
On the same count and under the same terms, for EGAGPPLRRWLRANLAASGGYAIA [C3A] the value was 2.3; for EGKGPPLRRWLRANLAASGGYAIA [C3K], 1.93.
The same measure, in the same setting: with EGCGDPLRRWLRANLAASGGYAIA [P5D] the figure was 2.38; with EGCGCPLRRWLRANLAASGGYAIA [P5C], 3.5.
On the same count and under the same terms, with EGCGAPLRRWLRANLAASGGYAIA [P5A] the figure was 2.08; with EGCVPPLRRWLRANLAASGGYAIA [G4V], 2.25; with EGCYPPLRRWLRANLAASGGYAIA [G4Y], 1.83.
Regarding EGCDPPLRRWLRANLAASGGYAIA [G4D], the protein stability index was determined as 2.1.
Same read-out and setting: with EGCEPPLRRWLRANLAASGGYAIA [G4E] the figure was 1.98.
As for EGCMPPLRRWLRANLAASGGYAIA [G4M], the protein stability index was determined as 1.83.
Same read-out and setting: with EGCAPPLRRWLRANLAASGGYAIA [G4A] the figure was 1.54; with EGCCPPLRRWLRANLAASGGYAIA [G4C], 1.32; with EGCTPPLRRWLRANLAASGGYAIA [G4T], 2.5.
On the same count and under the same terms, with EGCKPPLRRWLRANLAASGGYAIA [G4K] the figure was 2.31; with EGCNPPLRRWLRANLAASGGYAIA [G4N], 2.06; with EGCRPPLRRWLRANLAASGGYAIA [G4R], 2.44.
With EGCSPPLRRWLRANLAASGGYAIA [G4S], the protein stability index amounted to 2.09.
On the same count and under the same terms, with EGCQPPLRRWLRANLAASGGYAIA [G4Q] the figure was 2; with EGCFPPLRRWLRANLAASGGYAIA [G4F], 1.27; with EGCWPPLRRWLRANLAASGGYAIA [G4W], 2.15.
On the same count and under the same terms, with EGCPPPLRRWLRANLAASGGYAIA [G4P] the figure was 2.04.
On the same count and under the same terms, for EGCIPPLRRWLRANLAASGGYAIA [G4I] the value was 2.28; for EGCLPPLRRWLRANLAASGGYAIA [G4L], 1.58.
Turning to EGCHPPLRRWLRANLAASGGYAIA [G4H], the protein stability index came to 2.58.
As for ESCGPPLRRWLRANLAASGGYAIA [G2S], the protein stability index was 1.6.
As to EQCGPPLRRWLRANLAASGGYAIA [G2Q], the protein stability index was 2.33.
Turning to EWCGPPLRRWLRANLAASGGYAIA [G2W], the protein stability index amounted to 2.
The same measure, in the same setting: for ETCGPPLRRWLRANLAASGGYAIA [G2T] the value was 1.83; for EECGPPLRRWLRANLAASGGYAIA [G2E], 1.97; for EICGPPLRRWLRANLAASGGYAIA [G2I], 2.15.
Same read-out and setting: with ERCGPPLRRWLRANLAASGGYAIA [G2R] the figure was 2.04.
Same read-out and setting: for EFCGPPLRRWLRANLAASGGYAIA [G2F] the value was 2.24.
With EPCGPPLRRWLRANLAASGGYAIA [G2P], the protein stability index is 1.85.
Still for that read-out and setting: with EVCGPPLRRWLRANLAASGGYAIA [G2V] the figure was 1.53.
On to EACGPPLRRWLRANLAASGGYAIA [G2A], for which the protein stability index is 2.
Take EHCGPPLRRWLRANLAASGGYAIA [G2H]: the protein stability index was found to be 2.07.
With EYCGPPLRRWLRANLAASGGYAIA [G2Y], the protein stability index stood at 1.69.
EKCGPPLRRWLRANLAASGGYAIA [G2K]: the protein stability index stood at 2.32.
ECCGPPLRRWLRANLAASGGYAIA [G2C]: the protein stability index was determined as 1.68.
With EDCGPPLRRWLRANLAASGGYAIA [G2D], the protein stability index turned out to be 1.91.
On to ELCGPPLRRWLRANLAASGGYAIA [G2L], for which the protein stability index was 1.57.
With ENCGPPLRRWLRANLAASGGYAIA [G2N], the protein stability index was 1.

In another data set the parent is B2. The data set is described as above. The note with it: c terminus: a fixed tail appended.
Take YIIQQGGWGTVFSLESAEEEYPGI [E17A]: the protein stability index was found to be 1.23.
Still for that read-out and setting: with YIIQQGGWGTVFSLESYEEEYPGI [E17Y] the figure was 3.21; with YIIQQGGWGTVFSLESWEEEYPGI [E17W], 2.52.
For YIIQQGGWGTVFSLESCEEEYPGI [E17C], the protein stability index was found to be 2.77.
YIIQQGGWGTVFSLESHEEEYPGI [E17H]: the protein stability index is 2.65.
For YIIQQGGWGTVFSLESPEEEYPGI [E17P], the protein stability index was found to be 4.07.
Consider YIIQQGGWGTVFSLESTEEEYPGI [E17T], for which the protein stability index was 2.81.
Still for that read-out and setting: for YIIQQGGWGTVFSLESDEEEYPGI [E17D] the value was 1.19.
Regarding YIIQQGGWGTVFSLESNEEEYPGI [E17N], the protein stability index was 2.31.
On the same count and under the same terms, for YIIQQGGWGTVFSLESFEEEYPGI [E17F] the value was 2.7.
Same read-out and setting: for YIIQQGGWGTVFSLESIEEEYPGI [E17I] the value was 1.76; for YIIQQGGWGTVFSLESEEEEYDGI [P22D], 2.69; for YIIQQGGWGTVFSLESEEEEYRGI [P22R], 1.92.
On to YIIQQGGWGTVFSLESEEEEYMGI [P22M], for which the protein stability index was determined as 1.42.
On the same count and under the same terms, for YIIQQGGWGTVFSLESEEEEYQGI [P22Q] the value was 1.47.
Still for that read-out and setting: with YIIQQGGWGTVFSLESEEEEYNGI [P22N] the figure was 1.42; with YIIQQGGWGTVFSLESEEEEYKGI [P22K], 2.65; with YIIQQGGWGTVFSLESEEEEYSGI [P22S], 2.18.
Same read-out and setting: with YIIQQGGWGTVFSLESEEEEYLGI [P22L] the figure was 2.9; with YIIQQGGWGTVFSLESEEEEYHGI [P22H], 1.7.

For the origin of these results see the supplement of paper PMC10567573.
